In US20090202547A1 (FIBRON, published 2009):

B1: MS-Pro-28-dHLX-MH (Fab, V domains shown)
VH: QVQLVQSGAEVKKPGSSVKVSCKASGGTFSSYAISWVRQAPGQGLEWMGGIIPIFGTANYAQKFQGRVTITADESTSTAYMELSSLRSEDTAVYYCARGGGWVSHGYYYLFDLWGQGTLVTVSS
VL: DIQMTQSPSSLSASVGDRVTITCRASQGISSYLAWYQQKPGKAPKLLIYAASSLQSGVPSRFSGSGSGTDFTLTISSLQPEDFAVYYCFQYGSIPPTFGQGTKVEIKR
notes: Fab mini-antibody format Fab-dHLX-MH, a dimer of the Fab monomer; also called MSPRO28 Fab-dHLX
B2: MSPRO59 (Fab, V domains shown)
VH: QVQLQQSGPGLVKPSQTLSLTCAISGDSVSSNSAAWNWIRQSPGRGLEWLGRTYYRSKWYNDYAVSVKSRITINPDTSKNQFSLQLNSVTPEDTAVYYCARSYYPDFDYWGQGTLVTVSS
VL: DIELTQPPSVSVAPGQTARISCSGDALGDKYASWYQQKPGQAPVLVIYDDSDRPSGIPERFSGSNSGNTATLTISGTQAEDEADYYCQSYDGPDLWVFGGGTKLTVLG
notes: HuCAL Fab, framework VH6_L3
B3: MSPRO55 (Fab, V domains shown)
VH: QVQLVQSGAEVKKPGASVKVSCKASGYTFTSYYMHWVRQAPGQGLEWMGWINPNSGGTNYAQKFQGRVTMTRDTSISTAYMELSSLRSEDTAVYYCARSMNSTMYWYLRRVLFDHWGQGTLVTVSS
VL: DIALTQPASVSGSPGQSITISCTGTSSDVGGYNYVSWYQQHPGKAPKLMIYDVSNRPSGVSNRFSGSKSGNTASLTISGLQAEDEADYYCQSYDMYNYIVFGGGTKLTVLG
B4: MS-Pro-26-dHLX-MH (Fab, V domains shown)
VH: QVQLVQSGAEVKKPGASVKVSCKASGYTFTSYYMHWVRQAPGQGLEWMGWINPNSGGTNYAQKFQGRVTMTRDTSISTAYMELSSLRSEDTAVYYCARGYWYAYFTYINYGYFDNWGQGTLVTVSS
VL: DIALTQPASVSGSPGQSITISCTGTSSDVGGYNYVSWYQQHPGKAPKLMIYDVSNRPSGVSNRFSGSKSGNTASLTISGLQAEDEADYYCQSYDNNSDVVFGGGTKLTVLG
notes: Fab mini-antibody format Fab-dHLX-MH, a dimer of the Fab monomer; also called MSPRO26 dimeric dHLX format; Fab-dHLX
B5: MS-Pro-24-dHLX-MH (Fab, V domains shown)
VH: QVQLVQSGAEVKKPGSSVKVSCKASGGTFSSYAISWVRQAPGQGLEWMGGIIPIFGTANYAQKFQGRVTITADESTSTAYMELSSLRSEDTAVYYCARVNHWTYTFDYWGQGTLVTVSS
VL: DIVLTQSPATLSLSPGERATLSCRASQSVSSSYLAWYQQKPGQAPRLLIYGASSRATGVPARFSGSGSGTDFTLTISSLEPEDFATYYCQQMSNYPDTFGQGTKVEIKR
notes: Fab mini-antibody format Fab-dHLX-MH, a dimer of the Fab monomer; also called MSPRO24 Fab-dHLX
B6: MSPRO12 (Fab, V domains shown)
VH: QVQLKESGPALVKPTQTLTLTCTFSGFSLSTSGVGVGWIRQPPGKALEWLALIDWDDDKYYSTSLKTRLTISKDTSKNQVVLTMTNMDPVDTATYYCARYHSWYEMGYYGSTVGYMFDYWGQGTLVTVSS
VL: DIELTQPPSVSVAPGQTARISCSGDALGDKYASWYQQKPGQAPVLVIYDDSDRPSGIPERFSGSNSGNTATLTISGTQAEDEADYYCQSYDFDFAVFGGGTKLTVLG
notes: HuCAL Fab, framework VH2_L3
B7: MS-Pro-11-dHLX-MH (Fab, V domains shown)
VH: QVQLVQSGAEVKKPGASVKVSCKASGYTFTSYYMHWVRQAPGQGLEWMGWINPNSGGTNYAQKFQGRVTMTRDTSISTAYMELSSLRSEDTAVYYCARYYGSSLYHYVFGGFIDYWGQGTLVTVSS
VL: DIALTQPASVSGSPGQSITISCTGTSSDVGGYNYVSWYQQHPGKAPKLMIYDVSNRPSGVSNRFSGSKSGNTASLTISGLQAEDEADYYCQSHHFYEVFGGGTKLTVLG
notes: Fab mini-antibody format Fab-dHLX-MH, a dimer of the Fab monomer; also called MSPRO11 Fab-dHLX

Tests used:
FR3exFc [1] = molecular target: T1, FR3exFc (human); test: BIAcore, Fab-dHLX-MH miniantibody
T1 construct: also called FGFR3/Fc; FR3/Fc
T1 sequence (chain, as listed by the source limits assumed): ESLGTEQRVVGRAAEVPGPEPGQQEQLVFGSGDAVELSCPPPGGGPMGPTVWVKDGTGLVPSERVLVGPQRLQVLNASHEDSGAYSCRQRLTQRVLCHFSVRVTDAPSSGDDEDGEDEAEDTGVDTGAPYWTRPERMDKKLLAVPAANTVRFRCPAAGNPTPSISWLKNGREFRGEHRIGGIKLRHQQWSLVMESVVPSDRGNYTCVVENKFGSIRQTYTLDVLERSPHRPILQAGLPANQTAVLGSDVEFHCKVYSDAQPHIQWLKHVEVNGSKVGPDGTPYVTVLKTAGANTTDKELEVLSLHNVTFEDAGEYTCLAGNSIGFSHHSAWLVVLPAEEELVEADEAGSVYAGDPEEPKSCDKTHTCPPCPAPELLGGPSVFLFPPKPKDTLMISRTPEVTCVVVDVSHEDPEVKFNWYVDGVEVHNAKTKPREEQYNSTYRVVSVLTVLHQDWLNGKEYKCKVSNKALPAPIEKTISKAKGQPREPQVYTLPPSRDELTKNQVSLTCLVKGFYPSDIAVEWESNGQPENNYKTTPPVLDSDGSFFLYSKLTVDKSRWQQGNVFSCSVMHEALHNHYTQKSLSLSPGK

FR3exFc [2] = molecular target: T1, FR3exFc; test: BIACORE
Experimental: (§1) The affinity measurements were performed by BIACORE® analysis according to the standard procedure recommended by the supplier (Pharmacia). The anti-Fc antibody was coupled via the EDC/NHS chemistry to the chip and subsequently FGFR3 was captured. The Fabs of the invention were then bound to this surface.

[3] = molecular target: T2, FGFR3 (wild type) on cells (human, UniProt P22607 23-806); test: FACS
T2 construct: also called FDCP-FR3; FDCP-FGFR3
T2 sequence (P22607 23-806 limits assumed): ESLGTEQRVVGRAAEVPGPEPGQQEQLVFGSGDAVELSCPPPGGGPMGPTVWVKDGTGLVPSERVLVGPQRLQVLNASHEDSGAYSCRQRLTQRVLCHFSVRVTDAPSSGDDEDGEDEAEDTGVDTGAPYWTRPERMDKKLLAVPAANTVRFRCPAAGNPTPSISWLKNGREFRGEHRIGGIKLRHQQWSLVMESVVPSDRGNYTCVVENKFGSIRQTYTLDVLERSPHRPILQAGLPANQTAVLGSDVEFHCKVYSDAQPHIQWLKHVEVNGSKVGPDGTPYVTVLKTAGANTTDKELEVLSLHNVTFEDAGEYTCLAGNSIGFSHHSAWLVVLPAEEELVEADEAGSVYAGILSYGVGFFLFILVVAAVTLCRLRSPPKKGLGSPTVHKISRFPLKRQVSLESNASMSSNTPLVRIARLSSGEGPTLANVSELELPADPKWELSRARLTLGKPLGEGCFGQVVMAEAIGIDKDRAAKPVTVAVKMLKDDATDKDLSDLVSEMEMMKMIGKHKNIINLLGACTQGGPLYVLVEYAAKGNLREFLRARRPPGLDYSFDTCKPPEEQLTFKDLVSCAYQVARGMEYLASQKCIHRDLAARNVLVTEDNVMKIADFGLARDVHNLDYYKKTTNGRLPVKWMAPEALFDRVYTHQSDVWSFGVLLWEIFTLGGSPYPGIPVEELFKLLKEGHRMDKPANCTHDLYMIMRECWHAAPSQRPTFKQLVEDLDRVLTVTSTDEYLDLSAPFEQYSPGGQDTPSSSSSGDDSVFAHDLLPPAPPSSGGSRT

[4] = molecular target: T2, FGFR3 (wild type) on cells; test: cell-based or functional assay
FR3exFc [5] = molecular target: T1, FR3exFc; test: BIACORE, FGFR3 captured on an anti-Fc chip
Experimental: as §1

[6] = molecular target: T2, FGFR3 (wild type) on cells; test: cell-based or functional assay; remark: listed apart in the source
FR3exFc [7] = molecular target: T1, FR3exFc; test: BIACORE, FGFR3 captured on an anti-Fc chip; remark: listed apart in the source
Experimental: as §1

FR3exFc [8] = molecular target: T1, FR3exFc; test: BIAcore; number in parentheses taken as the monomeric Fab
Experimental: as §1

[9] = molecular target: T2, FGFR3 (wild type) on cells; test: indirect FACS-Scatchard

Binder	Kd (FR3exFc [1])	koff (FR3exFc [2])	IC50 FR3 (FGF9), FDCP-FGFR3 proliferation assay [4]	Kd (FR3exFc [5])	also measured
B1	1.6 nM	–	–	–	–
B2	–	0.00071 s⁻¹	19 nM	1.5 nM	Kd [3]: < 1 nM
B3	–	0.00074 s⁻¹	34 nM	2.9 nM	–
B4	2 nM	–	–	–	IC50, FDCP-FGFR3 proliferation assay with FGF9, dimeric dHLX format [6]: 8 nM
B5	2 nM	–	–	–	–
B6	–	0.0023 s⁻¹	58 nM	14 nM	Kd [3]: 6.5 nM; IC50, FDCP-FGFR3 proliferation assay with FGF9, monomeric Fab (in parentheses) [6]: 58 nM; Kd (FR3exFc [7]): 14 nM; Kd (FR3exFc [8]): 14 nM; Kd [9]: 6.5 nM
B7	0.7 nM	–	–	–	–
